Measurements taken from publication PMC11531485, “Examining prestructured β-actin peptides as substrates of histidine methyltransferase SETD3” (Scientific Reports, 2024).
Positions of bridges follow the written chain, without caps; N, C: chain ends. No end group written: not given here.

Columns and labels:
[1] = target: T1, human SETD3 histidine methyltransferase (human, UniProt Q86TU7 1-594); experiment: cell-based or functional assay
T1 sequence (looked up): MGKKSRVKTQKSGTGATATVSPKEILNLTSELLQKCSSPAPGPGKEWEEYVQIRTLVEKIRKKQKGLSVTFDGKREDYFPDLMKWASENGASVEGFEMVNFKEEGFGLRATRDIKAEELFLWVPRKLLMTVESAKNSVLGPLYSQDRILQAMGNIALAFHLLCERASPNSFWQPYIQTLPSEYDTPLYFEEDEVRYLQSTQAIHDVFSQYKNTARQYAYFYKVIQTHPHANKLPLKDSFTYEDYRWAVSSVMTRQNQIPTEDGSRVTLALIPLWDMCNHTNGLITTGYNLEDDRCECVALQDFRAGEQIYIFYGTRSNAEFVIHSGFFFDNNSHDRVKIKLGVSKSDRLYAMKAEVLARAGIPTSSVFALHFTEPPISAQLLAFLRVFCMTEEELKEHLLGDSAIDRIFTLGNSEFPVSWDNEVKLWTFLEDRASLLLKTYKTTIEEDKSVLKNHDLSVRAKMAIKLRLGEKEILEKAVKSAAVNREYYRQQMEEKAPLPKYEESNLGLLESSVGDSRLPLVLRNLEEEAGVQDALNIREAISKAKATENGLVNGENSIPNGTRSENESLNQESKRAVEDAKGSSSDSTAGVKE

[2] = target: T1, human SETD3 histidine methyltransferase; experiment: ITC; βA peptides (700-850 µM) titrated into SETD3 (30 µM) preincubated with SAH (350 µM) for 1 h; 20 mM Tris, 200 mM NaCl, pH 8.0; MicroCal PEAQ-ITC; One Set of Sites model; details: both partners purified
[3] = target: T1, human SETD3 histidine methyltransferase; experiment: cell-based or functional assay; remark: listed apart in the source

TLKYPIEHGIVTNWDD-NH2 [linear β-actin peptide (βA-H73, natural sequence)]
kcat of SETD3-catalysed methylation, MALDI-TOF MS steady-state kinetics (200 nM SETD3, 100 µM SAM, pH 9.0, 37 °C) [1]: 148 min^-1 | kcat/Km of SETD3-catalysed methylation, MALDI-TOF MS steady-state kinetics (200 nM SETD3, 100 µM SAM, pH 9.0, 37 °C) [1]: 5.78 µM^-1min^-1 | Kd [2]: 2.46 µM

TLKYPIEHGKVTNWDD-NH2 (lactam 7-10) [stapled βA peptide 9 (cyclic lactam, Glu72-Lys75)]
IC50 of inhibition of SETD3-catalysed methylation of the βA-H73 peptide, MALDI-TOF MS single point assay (10 and 100 µM peptide, 360 nM SETD3, 100 µM SAM) [3]: > 100 µM | Kd [2]: 24 µM
